Assay results published in patent publication US20240392013A1 (STELEXIS THERAPEUTICS, published 2024).

T1: IL1RAP on HEK-Blue IL1β / HEK-Blue IL33 reporter cells (UniProt Q9NPH3 21-570, limits assumed)
T1 sequence (looked up): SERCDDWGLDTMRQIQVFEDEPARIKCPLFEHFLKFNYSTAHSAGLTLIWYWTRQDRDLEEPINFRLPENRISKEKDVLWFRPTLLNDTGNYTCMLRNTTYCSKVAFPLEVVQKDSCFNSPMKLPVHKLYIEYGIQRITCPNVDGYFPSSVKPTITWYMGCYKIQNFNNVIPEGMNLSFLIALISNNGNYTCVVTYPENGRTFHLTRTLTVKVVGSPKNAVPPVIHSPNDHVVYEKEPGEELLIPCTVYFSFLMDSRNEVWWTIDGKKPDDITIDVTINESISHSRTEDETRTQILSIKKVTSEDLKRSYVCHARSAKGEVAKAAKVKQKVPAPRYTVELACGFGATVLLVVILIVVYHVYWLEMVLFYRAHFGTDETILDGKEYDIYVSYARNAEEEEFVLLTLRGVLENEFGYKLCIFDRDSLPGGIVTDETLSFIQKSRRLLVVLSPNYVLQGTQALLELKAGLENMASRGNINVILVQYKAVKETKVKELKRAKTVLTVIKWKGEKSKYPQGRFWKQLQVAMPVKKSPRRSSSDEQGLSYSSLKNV

T2: cyIL1RAP-His (Lake Pharma) (cynomolgus monkey, UniProt A0A2K5X5J5 21-367)
T2 construct: Bought protein (Lake Pharma, lot 16205819371); also called cynomolgus IL1RAP; monkey IL1RAP; not shown: His tag
T2 sequence: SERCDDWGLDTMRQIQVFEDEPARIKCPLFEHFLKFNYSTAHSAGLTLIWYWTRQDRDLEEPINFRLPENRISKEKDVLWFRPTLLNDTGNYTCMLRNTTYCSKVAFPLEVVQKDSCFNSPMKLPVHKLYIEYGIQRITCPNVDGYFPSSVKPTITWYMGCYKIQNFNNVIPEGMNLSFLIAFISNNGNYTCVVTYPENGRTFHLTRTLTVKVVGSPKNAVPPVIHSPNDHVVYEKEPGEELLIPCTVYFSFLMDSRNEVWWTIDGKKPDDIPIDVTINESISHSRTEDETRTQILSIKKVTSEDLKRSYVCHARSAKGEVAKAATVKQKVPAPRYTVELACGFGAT

T3: recombinant mouse IL1RAP protein (Sino Biological, Cat #52657-M08H) (mouse, UniProt Q61730 21-359)
T3 construct: Bought protein
T3 sequence (looked up): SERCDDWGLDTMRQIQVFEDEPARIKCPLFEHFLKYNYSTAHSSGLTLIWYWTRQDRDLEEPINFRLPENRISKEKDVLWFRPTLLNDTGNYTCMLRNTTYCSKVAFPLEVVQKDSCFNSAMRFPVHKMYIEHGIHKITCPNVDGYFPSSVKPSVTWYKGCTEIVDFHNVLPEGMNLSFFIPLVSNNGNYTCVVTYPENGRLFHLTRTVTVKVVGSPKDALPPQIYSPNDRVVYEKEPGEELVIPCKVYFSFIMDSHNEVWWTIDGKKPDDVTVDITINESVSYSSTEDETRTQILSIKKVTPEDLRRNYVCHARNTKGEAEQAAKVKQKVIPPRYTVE

T4: recombinant human IL1RAP protein, extracellular domain His-tagged (Sino Biological, Cat #10121-H08H) (human, UniProt Q9NPH3 21-367)
T4 construct: extracellular domain; Bought protein; The Octet analyte is printed as huIL1RAP-His (Sino Biological, lot MB08MA1301) without a catalogue number; also called huIL1RAP-His; hIL1RAP; not shown: His tag
T4 sequence (looked up): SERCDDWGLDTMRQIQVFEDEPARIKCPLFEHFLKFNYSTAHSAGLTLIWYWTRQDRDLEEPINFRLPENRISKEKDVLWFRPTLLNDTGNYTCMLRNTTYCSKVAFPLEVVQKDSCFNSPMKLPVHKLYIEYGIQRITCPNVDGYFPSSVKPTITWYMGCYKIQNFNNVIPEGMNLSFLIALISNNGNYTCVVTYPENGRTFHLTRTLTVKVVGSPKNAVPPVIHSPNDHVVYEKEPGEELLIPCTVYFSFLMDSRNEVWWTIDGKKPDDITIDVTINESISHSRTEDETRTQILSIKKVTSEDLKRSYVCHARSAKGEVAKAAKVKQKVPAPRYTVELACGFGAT


What was measured:
[1] = target: T1, IL1RAP on HEK-Blue IL1β / HEK-Blue IL33 …; experiment: cell-based or functional assay
[2] = target: T2, cyIL1RAP-His (Lake Pharma); experiment: Octet BLI; mAb captured on anti-mouse IgG Fc sensor; cyIL1RAP-His analyte
Protocol: (§1) Antibodies were diluted in kinetics buffer (0.1% BSA, 0.02% Tween-20 and 0.05% NaN₃ in PBS) and loaded onto 16 channel anti-mouse IgG Fc capture sensors (AMC, Cat #2001073; Sartorius, Göttingen, Germany). Human, huIL1RAP-His (Sino Biological, lot: MB08MA1301), and monkey, cyIL1RAP-His (Lake Pharma, NY, USA; lot:16205819371) proteins were titrated starting from the highest concentration of 100 nM and followed by 50 nM and 25 nM. Purified antibodies were loaded at 5 μg/ml in kinetics buffer. The experimental parameters selected to determine the kinetic constants were Baseline for 60 s, Loading of antibody to sensor for 180 s, Association of analyte to antibody for 120 s, Dissociation for 1200 s and Regeneration in 10 mM Glycine pH 1.7 for 4×30 s.
(§2) Regeneration cycle tracking was selected for 12 cycles. Binding to human and cynomolgus IL1RAP was measured and KD (M) kinetics were calculated. Also, the disassociation rate (Kdis) (1/s) and association rate (Kon) (1/Ms) kinetics were calculated (data not shown).

[3] = target: T1, IL1RAP on HEK-Blue IL1β / HEK-Blue IL33 …; experiment: cell-based or functional assay; remark: listed apart in the source
[4] = target: T3, recombinant mouse IL1RAP protein (Sino …); experiment: cell-free ELISA, mouse IL1RAP coated; data not shown
Protocol: Recombinant human or mouse IL1RAP proteins (Sino Biological, Beijing, China; Cat #10121-H08H and Sino Biological, Cat #52657-M08H respectively) were diluted in PBS, pH 7.4 at concentration of 1 μg/ml, coated on high-binding 384-well clear plates and incubated overnight at 4° C. Following, plates were washed 3× with 0.05% Tween-20 in PBS, pH 7.5 and then blocked with 1% BSA in PBS for 1 hour at room temperature. After 3× washes, wells were incubated with each antibody at the highest concentration of 100 nM followed by seven serial half log dilutions (in 1% BSA and 0.05% Tween-20 in PBS) for 1 hour at room temperature. Plates were then washed 3× and incubated with […] detection antibody (Medna, TX, USA; Cat #D8212, 0.5 μg/ml diluted in 0.02% Tween-20 in PBS). After 5× washes, Supersignal ELISA Pico substrate (Thermofisher, MA, USA; Cat #37069) was applied to wells and chemiluminescent signal was read on Sprectramax L for 200 ms/well. Similarly, detection with specific κ and λ antibodies was conducted to define light chain isotyping.

[5] = target: T4, recombinant human IL1RAP protein, …; experiment: Octet BLI; mAb captured on anti-mouse IgG Fc sensor; huIL1RAP-His analyte
Protocol: as §1, §2

| Binder | IC50, HEK-BlueIL1β NFκB Reporter Assay [1] | Max % Inhibition at 200 nM, HEK-BlueIL1β NFκB Reporter Assay [1] | Kd [2] | Response [2] | koff [2] | kon [2] | IC50, HEK-BlueIL33 NFκB Reporter Assay [3] | Max % Inhibition at 200 nM, HEK-BlueIL33 NFκB Reporter Assay [3] | binding result [4] | Kd [5] | Response [5] | koff [5] | kon [5] |
| --- | --- | --- | --- | --- | --- | --- | --- | --- | --- | --- | --- | --- | --- |
| STLX2045 (antibody, V domains shown, Purified from hybridoma of immunized Alivamab mice; intact IgG; captured on anti-mouse IgG Fc sensors in Octet; kappa light chain; also called 74804_45C18A) VH: EVQLVESGGGLVKPGGSLRLACAATGFTFSNVWMSWVRQGSGKGLEWVGRIKSKADGGTIDYAAPVKGRFTISRDDSKNTLYLQMNSLKTEDTAMYYCTTGELLGFDYWGQGTLVTVSS VL: DIVMTQSPLSLPVTPGEPASISCRSGQSLLHSNGFNCLAWYLQKPGQSPQLLIYLGSNRASGVPDRFSGSGSGTDFTLKISRVEAEDVGVYYCMQTLQTPITFGQGTRLEIK | 1.93e-10 M (implied; unit not printed) | 100% | 0.863 nM | 0.277 | 0.000291 s⁻¹ | 338000 M⁻¹ s⁻¹ | 1.37e-09 M (implied; unit not printed) | 98% | no binding (tested: 100 nM) | 0.648 nM | 0.261 | 0.000273 s⁻¹ | 422000 M⁻¹ s⁻¹ |
| STLX2021 (antibody, V domains shown, Purified from hybridoma of immunized Alivamab mice; intact IgG; captured on anti-mouse IgG Fc sensors in Octet; lambda light chain; also called 74804_21D11A) VH: EVQVVESGGGLVKPGGSLRLSCAASGFIFSKAWMSWVRQAPGKGLEWVGRIKSKTDGGTTDYAAPVKGRFTISRDDSKNTLYLQMNSLKTEDTAVYYCTTGGYVFDYWGQGALVTVSS VL: not shown | 5.32e-10 M (implied; unit not printed) | 101% | 10.2 nM | 0.232 | 0.00259 s⁻¹ | 254000 M⁻¹ s⁻¹ | 3.54e-09 M (implied; unit not printed) | 85% | no binding (tested: 100 nM) | 2.19 nM | 0.249 | 0.000478 s⁻¹ | 218000 M⁻¹ s⁻¹ |
| STLX2027 (antibody, V domains shown, Purified from hybridoma of immunized Alivamab mice; intact IgG; captured on anti-mouse IgG Fc sensors in Octet; lambda light chain; also called 74804_27I24A) VH: EVQLVESGGGLVKPGGSLRLSCAASGFTFITYSMNWVRQAPGKGLEWVSSISSISSYIYYADSVKGRFTISRDNAKNSLYLQMDSLRAEDSAVYYCAREGIVGPTGYFDSWGQGTLVTVSS VL: QSVLTQPPSVSAAPGQKVTISCSGSSSNIGNHYVSWYQQLPGTAPKLLIYDNNKRPSGIPDRFSGSKSGTSATLGITGLQTGDEADYYCGTWDSRLSAYWVFGGGTKLTVL | 1.96e-09 M (implied; unit not printed) | 100% | 2.82 nM | 0.242 | 0.00107 s⁻¹ | 380000 M⁻¹ s⁻¹ | 8.31e-09 M (implied; unit not printed) | 86% | no binding (tested: 100 nM) | 2.13 nM | 0.229 | 0.000747 s⁻¹ | 350000 M⁻¹ s⁻¹ |
| STLX2016 (antibody, V domains shown, Purified from hybridoma of immunized Alivamab mice; intact IgG; captured on anti-mouse IgG Fc sensors in Octet; lambda light chain; also called 74804_16M09A) VH: QVQLQESGPGLVKPSETLSLTCTVSGGSISSYFWNWIRQPPGKGLEWIGYGHYSGNSNHNPSLKSRVTISVDMSKNQFSLKMSSVTAADTAMYYCAREGLHDAFDIWGQGTMVTVSS VL: not shown | 8.05e-10 M (implied; unit not printed) | 100% | 3.94 nM | 0.199 | 0.004 s⁻¹ | 1.01e+06 M⁻¹ s⁻¹ | 7.66e-09 M (implied; unit not printed) | 76% | no binding (tested: 100 nM) | 0.834 nM | 0.257 | 0.000411 s⁻¹ | 493000 M⁻¹ s⁻¹ |
| STLX2030 (antibody, V domains shown, Purified from hybridoma of immunized Alivamab mice; intact IgG; captured on anti-mouse IgG Fc sensors in Octet; kappa light chain; also called 74804_30O16A) VH: QVQLVQSGAEVKRPGASVKVSCKASGYTFTGYYMHWVRQAPGQGLEWMGWINPYSGGTDYAQKFQDRVTMTRDTSISTAYMELSRLRSDDTAVYYCARSYYYYGMDVWGQGITVTVSS VL: not shown | 2.31e-09 M (implied; unit not printed) | 98% | 2.59 nM | 0.169 | 0.000369 s⁻¹ | 143000 M⁻¹ s⁻¹ | 1.24e-08 M (implied; unit not printed) | 76% | no binding (tested: 100 nM) | 2.24 nM | 0.153 | 0.000359 s⁻¹ | 160000 M⁻¹ s⁻¹ |
| STLX2044 (antibody, V domains shown, Purified from hybridoma of immunized Alivamab mice; intact IgG; captured on anti-mouse IgG Fc sensors in Octet; lambda light chain; also called 74804_44J14A) VH: QVQLQESGPGLVKPSETLSLTCTVSGGSVFSYFWNWIRQPPVKGLEWIGYIDHSGGTNYNPSLKSRVTMSVDTSKNQFSLKLSSVTAADTAVYYCAREGLHDAFDIWGQGTLVTVSS VL: not shown | 7.92e-10 M (implied; unit not printed) | 98% | 1.68 nM | 0.223 | 0.00206 s⁻¹ | 1.23e+06 M⁻¹ s⁻¹ | 8.12e-09 M (implied; unit not printed) | 73% | no binding (tested: 100 nM) | 1.23 nM | 0.268 | 0.000684 s⁻¹ | 558000 M⁻¹ s⁻¹ |
| STLX2001N (antibody, V domains shown, Purified from hybridoma of immunized Alivamab mice; intact IgG; captured on anti-mouse IgG Fc sensors in Octet; kappa light chain; also called 74804_01N02A) VH: EVQLVQSGAEVKKPGESLKISCKGSGYSFTSYWIVWVRQMPGKGLEWMGFIYPGNSDTRYSPSFQGQVTISADQSISTAYLQWSSLKASDTATYYCARGGSYYLDYWGQGTLVTVSS VL: not shown | 1.72e-09 M (implied; unit not printed) | 101% | 1.23 nM | 0.342 | 0.000413 s⁻¹ | 334000 M⁻¹ s⁻¹ | 1.7e-08 M (implied; unit not printed) | 87% | no binding (tested: 100 nM) | 0.803 nM | 0.308 | 0.000233 s⁻¹ | 290000 M⁻¹ s⁻¹ |
